Measurements from publication doi:10.1101/582635.

B1: recombinant S. cerevisiae Asc1p-ybbR (RACK1 ortholog) (natural protein)
chain: MASNEVLVLRGTLEGHNGWVTSLATSAGQPNLLLSASRDKTLISWKLTGDDQKFGVPVRSFKGHSHIVQDCTLTADGAYALSASWDKTLRLWDVATGETYQRFVGHKSDVMSVDIDKKASMIISGSRDKTIKVWTIKGQCLATLLGHNDWVSQVRVVPNEKADDDSVTIISAGNDKMVKAWNLNQFQIEADFIGHNSNINTLTASPDGTLIASAGKDGEIMLWNLAAKKAMYTLSAQDEVFSLAFSPNRYWLAAATATGIKVFSLDPQYLVDDLRPEFAGYSKAAEPHAVSLAWSADGQTLFAGYTDNVIRVWQVMTAN

How the values were obtained:
[1] = biological target: human 40S ribosomal subunit lacking RACK1 (ΔRACK1 40S) (human (endogenous in HAP1)) (UniProt P23396); experiment: native gel or EMSA
[2] = biological target: human 40S ribosomal subunit lacking RACK1 (ΔRACK1 40S) (human (endogenous in HAP1)) (UniProt P23396); experiment: FRET or BRET

Molecule | t1/2 (half-life on the 40S subunit) [1] | kobs (fast phase, 75 nM) [2] | kon (fast phase) [2]
RACK1-ybbR expressed in ΔRACK1 HAP1 cells (native, ribosome-bound) (from UniProt P63244 1-317) (natural protein) | 15 h |  | 
B1 |  | 0.2 s⁻¹ | 2e+06 M⁻¹ s⁻¹
